The record followed here is US20260116937A1 (published 2026).

Experiment [1] has as its target T1, human C3b (human, UniProt P01024 749-1663; P01024 23-667). The experiment can be described thus: ELISA. For orientation: ELISA stands for enzyme-linked immunosorbent assay.
Experiment [2] deals with T1, human C3b. Briefly: ELISA. This is another data set of the same source.
Experiment [3] addresses T1, human C3b. The experiment can be described thus: ELISA; culture supernatant.

T1 sequence (P01024 749-1663, chain 1 of 2): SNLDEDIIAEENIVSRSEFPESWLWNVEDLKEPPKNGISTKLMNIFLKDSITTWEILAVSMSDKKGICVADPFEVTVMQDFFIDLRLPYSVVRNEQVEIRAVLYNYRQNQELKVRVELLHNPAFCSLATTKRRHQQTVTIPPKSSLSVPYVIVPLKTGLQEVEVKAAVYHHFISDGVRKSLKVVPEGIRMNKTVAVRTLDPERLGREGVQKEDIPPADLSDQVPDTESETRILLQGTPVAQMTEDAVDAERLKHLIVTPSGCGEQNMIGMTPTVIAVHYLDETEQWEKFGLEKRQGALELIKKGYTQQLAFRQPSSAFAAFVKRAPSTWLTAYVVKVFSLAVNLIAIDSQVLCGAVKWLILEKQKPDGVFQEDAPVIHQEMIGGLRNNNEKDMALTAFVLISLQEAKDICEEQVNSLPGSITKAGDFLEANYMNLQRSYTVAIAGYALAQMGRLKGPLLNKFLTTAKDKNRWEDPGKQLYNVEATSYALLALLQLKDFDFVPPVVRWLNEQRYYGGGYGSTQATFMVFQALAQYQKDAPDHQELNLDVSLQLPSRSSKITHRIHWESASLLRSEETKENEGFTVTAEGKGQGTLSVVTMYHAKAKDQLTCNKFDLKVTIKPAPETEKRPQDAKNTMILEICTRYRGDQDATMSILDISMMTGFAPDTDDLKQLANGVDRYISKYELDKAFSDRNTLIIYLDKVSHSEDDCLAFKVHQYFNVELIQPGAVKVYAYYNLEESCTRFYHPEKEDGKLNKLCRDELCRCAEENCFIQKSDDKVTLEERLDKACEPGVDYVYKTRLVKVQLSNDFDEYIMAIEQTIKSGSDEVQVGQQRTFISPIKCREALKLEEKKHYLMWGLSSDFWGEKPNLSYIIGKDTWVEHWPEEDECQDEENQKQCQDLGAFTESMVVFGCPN
T1 sequence (P01024 23-667, chain 2 of 2): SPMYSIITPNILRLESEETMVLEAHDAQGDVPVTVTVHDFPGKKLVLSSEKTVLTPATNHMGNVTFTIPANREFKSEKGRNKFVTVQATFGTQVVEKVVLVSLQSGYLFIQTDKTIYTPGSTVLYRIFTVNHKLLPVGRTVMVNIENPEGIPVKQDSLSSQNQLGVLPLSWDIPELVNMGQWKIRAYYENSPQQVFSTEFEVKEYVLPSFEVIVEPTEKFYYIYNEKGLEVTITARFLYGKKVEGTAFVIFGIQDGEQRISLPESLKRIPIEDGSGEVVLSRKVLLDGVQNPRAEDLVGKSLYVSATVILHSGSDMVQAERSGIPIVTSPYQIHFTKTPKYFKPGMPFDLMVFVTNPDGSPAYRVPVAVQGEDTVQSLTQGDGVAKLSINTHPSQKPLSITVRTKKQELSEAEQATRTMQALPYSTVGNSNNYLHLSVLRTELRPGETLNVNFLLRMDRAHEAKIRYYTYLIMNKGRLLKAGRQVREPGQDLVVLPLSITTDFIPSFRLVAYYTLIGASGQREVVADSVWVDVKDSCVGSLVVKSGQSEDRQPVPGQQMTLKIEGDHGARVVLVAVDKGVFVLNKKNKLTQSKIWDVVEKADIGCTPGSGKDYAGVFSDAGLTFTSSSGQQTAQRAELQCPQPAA

B1: Factor H-like protein 1 (FHL-1) (other)
chain: EDCNELPPRRNTEILTGSWSDQTYPEGTQAIYKCRPGYRSLGNVIMVCRKGEWVALNPLRKCQKRPCGHPGDTPFGTFTLTGGNVFEYGVKAVYTCNEGYQLLGEINYRECDTDGWTNDIPICEVVKCLPVTAPENGKIVSSAMEPDREYHFGQAVRFVCNSGYKIEGDEEMHCSDDGFWSKEKPKCVEISCKSPDVINGSPISQKIIYKENERFQYKCNMGYEYSERGDAVCTESGWRPLPSCEEKSCDNPYIPNGDYSPLRIKHRTGDEITYQCRNGFYPATRGNTAKCTSTGWIPAPRCTLKPCDYPDIKHGGLYHENMRRPYFPVAVGKYYSYYCDEHFETPSGSYWDHIHCTQDGWSPAVPCLRKCYFPYLENGYNQNYGRKFVQGKSIDVACHPGYALPKAQTTVTCMENGWSPTPRCIRVSFTL
As to B1, in experiment [1], the EC50 (commonly the midpoint of the concentration-response curve) worked out at 7.4 nM.

B2: complement factor H (CFH) (other)
chain: EDCNELPPRRNTEILTGSWSDQTYPEGTQAIYKCRPGYRSLGNVIMVCRKGEWVALNPLRKCQKRPCGHPGDTPFGTFTLTGGNVFEYGVKAVYTCNEGYQLLGEINYRECDTDGWTNDIPICEVVKCLPVTAPENGKIVSSAMEPDREYHFGQAVRFVCNSGYKIEGDEEMHCSDDGFWSKEKPKCVEISCKSPDVINGSPISQKIIYKENERFQYKCNMGYEYSERGDAVCTESGWRPLPSCEEKSCDNPYIPNGDYSPLRIKHRTGDEITYQCRNGFYPATRGNTAKCTSTGWIPAPRCTLKPCDYPDIKHGGLYHENMRRPYFPVAVGKYYSYYCDEHFETPSGSYWDHIHCTQDGWSPAVPCLRKCYFPYLENGYNQNYGRKFVQGKSIDVACHPGYALPKAQTTVTCMENGWSPTPRCIRVKTCSKSSIDIENGFISESQYTYALKEKAKYQCKLGYVTADGETSGSITCGKDGWSAQPTCIKSCDIPVFMNARTKNDFTWFKLNDTLDYECHDGYESNTGSTTGSIVCGYNGWSDLPICYERECELPKIDVHLVPDRKKDQYKVGEVLKFSCKPGFTIVGPNSVQCYHFGLSPDLPICKEQVQSCGPPPELLNGNVKEKTKEEYGHSEVVEYYCNPRFLMKGPNKIQCVDGEWTTLPVCIVEESTCGDIPELEHGWAQLSSPPYYYGDSVEFNCSESFTMIGHRSITCIHGVWTQLPQCVAIDKLKKCKSSNLIILEEHLKNKKEFDHNSNIRYRCRGKEGWIHTVCINGRWDPEVNCSMAQIQLCPPPPQIPNSHNMTTTLNYRDGEKVSVLCQENYLIQEGEEITCKDGRWQSIPLCVEKIPCSQPPQIEHGTINSSRSSQESYAHGTKLSYTCEGGFRISEENETTCYMGKWSSPPQCEGLPCKSPPEISHGVVAHMSDSYQYGEEVTYKCFEGFGIDGPAIAKCLGEKWSHPPSCIKTDCLSLPSFENAIPMGEKKDVYKAGEQVTYTCATYYKMDGASNVTCINSRWTGRPTCRDTSCVNPPTVQNAYIVSRQMSKYPSGERVRYQCRSPYEMFGDEEVMCLNGNWTEPPQCKDSTGKCGPPPPIDNGDITSFPLSVYAPASSVEYQCQNLYQLEGNKRITCRNGQWSEPPKCLHPCVISREIMENYNIALRWTAKQKLYSRTGESVEFVCKRGYRLSSRSHTLRTTCWDGKLEYPTCAKR
B2: the 50% effective concentration (EC50) in experiment [2] came out at 1.2 nM; in experiment [1] it was 4.5 nM.

B3: Var108 (glycoengineered variant of FHL-1, G442N in the Var004 framework) (designed binder)
chain: EDCNELPPRRNTEILTGSWSDQTYPEGTQAIYKCRPGYRSLGNVIMVCRKGEWVALNPLRKCQKRPCGHPGDTPFGTFTLTGGNVFEYGVKAVYTCNEGYQLLGEINYRECDTDGWTNDIPICEVVKCLPVTAPENGKIVSSAMEPDREYHFGQAVRFVCNSGYKIEGDEEMHCSDDGFWSKEKPKCVEISCKSPDVINGSPISQKIIYKENERFQYKCNMGYEYSERGDAVCTESGWRPLPSCEEKSCDNPYIPNGDYSPLRIKHRTGDEITYQCRNGFYPATRGNTAKCTSTGWIPAPRCTLKPCDYPDIKHGGLYHENMRRPYFPVAVGKYYSYYCDEHFETPSGSYWDHIHCTQDGWSPAVPCLRKCYFPYLENGYNQNYGRKFVQGKSIDVACHPGYALPKAQTTVTCMENGWSPTPRCIRVSGGGGSGGGGSGGGNSTLKPCDYPDIKHGGLYHENMRRPYFPVAVGKYYSYYCDEHFETPSGSYWDHIHCTQDGWSPAVPCLRKCYFPYLENGYNQNYGRKFVQGKSIDVACHPGYALPKAQTTVTCMENGWSPTPRCIRVSFTL
modifications: N-linked glycosylation at the engineered NxS/T motif (G442N), >90% glycosylated monomer
B3 registered a 50% effective concentration (EC50) in experiment [1] of 0.4 nM.

B4: Var004 (engineered variant of FHL-1) (designed binder)
chain: EDCNELPPRRNTEILTGSWSDQTYPEGTQAIYKCRPGYRSLGNVIMVCRKGEWVALNPLRKCQKRPCGHPGDTPFGTFTLTGGNVFEYGVKAVYTCNEGYQLLGEINYRECDTDGWTNDIPICEVVKCLPVTAPENGKIVSSAMEPDREYHFGQAVRFVCNSGYKIEGDEEMHCSDDGFWSKEKPKCVEISCKSPDVINGSPISQKIIYKENERFQYKCNMGYEYSERGDAVCTESGWRPLPSCEEKSCDNPYIPNGDYSPLRIKHRTGDEITYQCRNGFYPATRGNTAKCTSTGWIPAPRCTLKPCDYPDIKHGGLYHENMRRPYFPVAVGKYYSYYCDEHFETPSGSYWDHIHCTQDGWSPAVPCLRKCYFPYLENGYNQNYGRKFVQGKSIDVACHPGYALPKAQTTVTCMENGWSPTPRCIRVSGGGGSGGGGSGGGGSTLKPCDYPDIKHGGLYHENMRRPYFPVAVGKYYSYYCDEHFETPSGSYWDHIHCTQDGWSPAVPCLRKCYFPYLENGYNQNYGRKFVQGKSIDVACHPGYALPKAQTTVTCMENGWSPTPRCIRVSFTL
Regarding B4, in experiment [3], the EC50 worked out at 2.5 nM.
